# Values quoted from earlier work as cited in US8536148B2, “Disabling autophagy as a treatment for lysosomal storage diseases” (The United States of America, as Represented by the …, priority 2009, dated 2013).
# System: Hunter syndrome patients
# [1] = from baseline, both dosing regimens
molecule,measurement,setting,value
"idursulfase: recombinant human I2S produced in a human cell line, approved for Hunter syndrome (protein, UniProt P22304 34-455; P22304 456-550, looked up) Iduronate 2-sulfatase 42 kDa …: TDALNVLLIIVDDLRPSLGCYGDKLVRSPNIDQLASHSLLFQNAFAQQAVCAPSRVSFLTGRRPDTTRLYDFNSYWRVHAGNFSTIPQYFKENGYVTMSVGKVFHPGISSNHTDDSPYSWSFPPYHPSSEKYENTKTCRGPDGELHANLLCPVDVLDVPEGTLPDKQSTEQAIQLLEKMKTSASPFFLAVGYHKPHIPFRYPKEFQKLYPLENITLAPDPEVPDGLPPVAYNPWMDIRQREDVQALNISVPYGPIPVDFQRKIRQSYFASVSYLDTQVGRLLSALDDLQLANSTIIAFTSDHGWALGEHGEWAKYSNFDVATHVPLIFYVPGRTASLPEAGEKLFPYLDPFDSASQLMEPGRQSMDLVELVSLFPTLAGLAGLQVPPRCPVPSFHVELCREGKNLLKHFRFRDLEEDPYLPG Iduronate 2-sulfatase 14 kDa …: NPRELIAYSQYPRPSDIPQWNSDKPSLKDIKIMGYSIRTIDYRYTVWVGFNPDEFLANFSDIHAGELYFVDSDPLQDHNMYNDSQGGDLFQLLMP",Liver and spleen volumes,[1],significantly reduced from baseline
same,Urine GAG excretion,[1],significantly reduced from baseline
same,Tolerability,"human, in vivo",generally well tolerated
same,Clinical improvement vs placebo,patients with Hunter syndrome,statistically significant improvement rate compared with placebo
